Test results from patent US20190389961A1 (INNATE PHARMA, published 2019).

Columns and labels:
[1] = target: T1, human CD39 (vascular CD39, NTPDase1) expressed at the surface of cells (human, UniProt P49961 1-510); experiment: flow cytometry on Ramos lymphoma cells, second set of experiments
T1 construct: also called huCD39; CHO-huCD39
T1 sequence: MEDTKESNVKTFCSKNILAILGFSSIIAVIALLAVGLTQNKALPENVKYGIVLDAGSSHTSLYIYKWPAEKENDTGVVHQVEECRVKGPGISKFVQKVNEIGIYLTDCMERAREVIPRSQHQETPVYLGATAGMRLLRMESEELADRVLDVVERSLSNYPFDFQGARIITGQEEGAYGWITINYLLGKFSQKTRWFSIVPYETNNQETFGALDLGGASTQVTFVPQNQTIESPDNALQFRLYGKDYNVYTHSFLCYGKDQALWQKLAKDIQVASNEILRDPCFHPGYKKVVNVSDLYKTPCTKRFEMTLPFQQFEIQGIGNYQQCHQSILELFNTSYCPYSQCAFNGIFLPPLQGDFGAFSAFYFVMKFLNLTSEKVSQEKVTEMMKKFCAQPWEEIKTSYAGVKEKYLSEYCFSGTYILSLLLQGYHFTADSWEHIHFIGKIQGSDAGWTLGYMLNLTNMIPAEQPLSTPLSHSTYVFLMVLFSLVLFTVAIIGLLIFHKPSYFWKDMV
Protocol: (§1) Cells were incubated with various concentration of unlabeled anti-CD39 antibody from 30 μg/ml to 5×10-⁴ μg/ml, for 30 minutes at 4° C. After washes, cells were incubated with Goat anti-mouse H+L labeled secondary antibody for 30 min at 4° C.

[2] = target: T1, human CD39 (vascular CD39, NTPDase1) …; experiment: flow cytometry on Hek-293T cells expressing wild-type CD39 (panel WT); unstained (US) median 10,3; antibody concentration not shown
Protocol: (§2) Mutants were transfected in Hek-293T cells, as shown in the table 1, using numbering of SEQ ID NO: 1. […] Mutant 19 includes substitutions at residues R138, M139 and E142.
(§3) In order to define the epitopes of the further anti-CD39 antibodies of Example 5, they were tested for loss of binding to the panel of CD39 mutants as described in Example 1 and Table 1. Mutants were transfected in Hek-293T cells, as shown in the table 1, using numbering of SEQ ID NO: 1.Dose-ranges of test antibodies (10-2.5-0.625-0.1563-0.0391-0.0098-0.0024-0.0006 μg/ml) are tested on the 20 generated mutants by flow cytometry.

[3] = target: T2, human CD39 mutant 19 (human, UniProt P49961 1-510); experiment: flow cytometry on Hek-293T cells expressing CD39 mutant 19 (panel M19); unstained (US) median 8,98; antibody concentration not shown
T2 construct: Expressed on Hek-293T cells; also called M19
T2 chain: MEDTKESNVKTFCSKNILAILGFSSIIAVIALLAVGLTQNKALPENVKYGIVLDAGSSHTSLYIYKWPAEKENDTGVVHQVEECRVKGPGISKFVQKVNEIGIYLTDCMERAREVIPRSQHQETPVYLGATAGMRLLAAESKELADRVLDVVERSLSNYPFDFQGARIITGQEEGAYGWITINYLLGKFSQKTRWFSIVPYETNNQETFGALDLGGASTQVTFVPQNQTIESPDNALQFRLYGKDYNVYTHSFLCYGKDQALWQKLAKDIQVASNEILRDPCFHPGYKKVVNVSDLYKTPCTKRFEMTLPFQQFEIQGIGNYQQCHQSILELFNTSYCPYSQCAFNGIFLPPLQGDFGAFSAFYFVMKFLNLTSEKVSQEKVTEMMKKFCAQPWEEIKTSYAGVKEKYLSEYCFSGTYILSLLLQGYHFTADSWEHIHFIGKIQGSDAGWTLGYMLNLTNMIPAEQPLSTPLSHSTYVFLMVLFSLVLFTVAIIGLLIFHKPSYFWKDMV
Protocol: as §2, §3

[4] = target: T3, human CD39 mutant 15 (human, UniProt P49961 1-510); experiment: flow cytometry on Hek-293T cells expressing CD39 mutant 15 (panel M15); unstained (US) median 8,98; antibody concentration not shown
T3 construct: Expressed on Hek-293T cells; also called M15
T3 chain: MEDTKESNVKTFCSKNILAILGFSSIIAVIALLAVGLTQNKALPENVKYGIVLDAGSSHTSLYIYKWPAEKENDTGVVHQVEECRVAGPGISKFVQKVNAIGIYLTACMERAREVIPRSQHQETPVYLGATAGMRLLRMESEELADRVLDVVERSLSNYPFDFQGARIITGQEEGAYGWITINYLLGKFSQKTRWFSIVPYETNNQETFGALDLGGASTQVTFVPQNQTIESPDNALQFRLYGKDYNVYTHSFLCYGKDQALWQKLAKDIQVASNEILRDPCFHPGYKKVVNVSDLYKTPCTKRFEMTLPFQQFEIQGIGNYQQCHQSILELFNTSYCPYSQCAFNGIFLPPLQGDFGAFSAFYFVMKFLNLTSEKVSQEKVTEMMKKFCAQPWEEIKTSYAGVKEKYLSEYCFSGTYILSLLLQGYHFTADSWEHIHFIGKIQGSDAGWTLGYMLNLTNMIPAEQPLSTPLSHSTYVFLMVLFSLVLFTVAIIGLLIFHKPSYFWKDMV
Protocol: as §2, §3

[5] = target: T2, human CD39 mutant 19; experiment: flow cytometry on Hek-293T cells expressing CD39 mutant 19 (panel M19)
Protocol: as §2, §3

[6] = target: T1, human CD39 (vascular CD39, NTPDase1) …; experiment: flow cytometry titration on CHO-huCD39 cells
Protocol: as §1

EC50 [1]: 0.19 µg/mL | Median : Comp-Alexa Fluor 647-A [2]: 3720 | Median : Comp-Alexa Fluor 647-A [3]: 24.4 | Median : Comp-Alexa Fluor 647-A [4]: 6360 | binding result [5]: no binding | EC50 (read off the curve) [6]: ~0.2 µg/mL
B1: antibody I-394 (antibody, V domains shown)
VH: EVQLQQSGPELVKPGASVKMSCKASGYTFTDYNMHWVKQSHGRTLEWIGYIVPLNGGSTFNQKFKGRATLTVNTSSRTAYMELRSLTSEDSAAYYCARGGTRFAYWGQGTLVTVSA
VL: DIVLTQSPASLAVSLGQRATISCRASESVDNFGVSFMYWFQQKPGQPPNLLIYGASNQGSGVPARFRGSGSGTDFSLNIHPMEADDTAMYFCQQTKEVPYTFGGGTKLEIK
notes: Mouse variable regions; Produced in CHO with human IgG1 constant domains carrying L234A/L235E/G237A/A330S/P331S (Kabat EU numbering) and a human Ck constant domain
